To fix the notation:
B1: M3A12 (antibody, V domains shown)
VH: QVQLQESGPQLVKPSQTLSLTCTVSGDSISSSDYCWSWIRQSPGKGLEWIGHSVYSGDTQYNPSLKSRLSISVDTSKNQFSLRLRSVTAADTAVYYCARGNDFWSGSFDYWGQGALVIVSS
VL: DIQMTQSPSSLSASVGDRVTITCRASQSIGTYLNWYQQKPGKAPKVLIYAASSLQSGVPSRFSGRGSGTDFTLTVSSLQPEDFASYYCQQSYTKPYTFGQGTKLEIK
notes: IgG
B2: M3A07 (antibody, V domains shown)
VH: QVQLVQSGAEVQKPGASVKVSCKASGYTFTRHAIHWVRQAPGQRLEWIGWVHGGNENTKYSQKLQGRVTITRDTSASTAYMELNSLRYEDTAVYYCATAMPGAFNMWGQGTVVTVSS
VL: DIQMTQSPSTLSASVGDRVTITCRASQSISSWVAWYQQKPGKAPKLLIYKAFSLETGVPSRFSGSGSGTEFTLTISSLQPDDCATYYCQQYGSFSEFTFGQGTKLEIK
notes: IgG
B3: M2E04 (antibody, V domains shown)
VH: QVQLQESGPGLVKPSEILSLTCTVSRFSINSGYYWGWIRQPPGKGLEWIGCISHAGSIYSNPSLESRVTLSLDTSKNQFSLKLTSVIAADTATYYCAASSNWHNALEYWGQGTLVVVSS
VL: QSVLTQPPSASGTPGQTVTISCSGSRSNMGINWVYWYQQLPGTAPKLVIYRNSQRPSGVPDRFSGSQSGTSASLAISGLRSEDEAVYYCAVWDDSLDGRLFGGGTKLTVL
notes: IgG
B4: M2E05 (antibody, V domains shown)
VH: QVQLQESGPGLVKPSEILSLTCTVSRYSINSGYYWGWIRQPPGKGLEWVGCVSHAGVTYYNPSLESRVAVSLDTSKNQFSLKMTSVSAADTAMYYCAASSNWHNALEYWGQGTLVAVSS
VL: B3 VL with T17S, R26S, V48L, A85G, V86H, S95V, L96V, D97S
notes: IgG
B5: M2B09 (antibody, V domains shown)
VH: QVQLVQSGPEVKGPGASVRVSCKANGYTFTSYGINWVRQTPGQGLQWMGWISVHTDDTKDVQQFQDRVTMTTDTSTSTVFMELRNLRFDDTAVYYCARDRTDISGRVRDAFDLWGQGTLVTVSS
VL: SYVLTQPPSVSVAPGQTAKITCGGNNIGSKSVHWYRQKPGQAPVLVVYDDSDRPSGIPERFSGSNSGNTATLTISRVEAGDEADYYCHVWDSYSDPNYVFGSGTKVTVL
notes: IgG
B6: M3D03 (antibody, V domains shown)
VH: QVQLVQSGAEVKKPGASVKVSCKASGYTFTSYGISWVRQAPGQGLEWMGWISAYNGNTNYAQKLQGRVTMTTDTSTSTAYMELRSLRSDDTAVYYCARDAPFGRDDGYGMDVWGQGTTVTVSS
VL: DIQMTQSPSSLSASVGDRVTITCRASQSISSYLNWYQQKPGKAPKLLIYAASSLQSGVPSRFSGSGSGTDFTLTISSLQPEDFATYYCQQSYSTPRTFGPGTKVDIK
notes: IgG
B7: M2C10 (antibody, V domains shown)
VH: QVQLVESGGGVVQPGRSLRLSCAASGFTFNNYAMHWVRQAPGKGLEWVALISDDGSKKYFADALKGRFTIFRDNSKNTLYLQMNSLRAEDTAVYYCARDPTPLGEYYFDYWGQGTLVTVSS
VL: DIQMTQSPSSLSASVGDRVTITCRASQTISGYLNWYQQKPGKAPNLLIYTASSLESGVPSRFSGSGSETDFTLTISSLQPEDFATYYCQQSYRMPLTFGGGTRVSLK
notes: IgG
B8: M4B11 (antibody, V domains shown)
VH: QVQLVQSGTEVQTPGASVKVSCKTSGYIFTGYFMHWVRQAPGQGFEWMGWVNPYSGATTYAQKFQGRVTMTRDTSISTVYMELSRLTSDDTAIYYCAKDTSNSGPDLLEHWGQGTLVIVSS
VL: EIVLTQSPATLSLSPGERATLSCRASQSISNFLVWYQRKPGQAPRLLIFDVSKRATGIPTRFSGSGSGTDFTLTISSLEPEDFAVYYCQQRSNWPPGYTFGQGTKLEIK
notes: IgG
B9: M1A11 (antibody, V domains shown)
VH: QLQLQESGPGLVKPSETLSLTCTVSGDSISSSSFYWGWIRQPPGKGLEWIATIYYTGSTEYNPSLKSRISISVDTSMNQFSLRLRSVTAADTAVYYCARQEGSSWSNWFDPWGQGTLVTVSS
VL: DIQMTQSPSSLSASVGDRVTITCRASQSISTYLNWYQQKPGKAPKLLIYVASSLQSGVPSRFSGSGSGTDFTLTISSLQPEDFATYYCQQGYSIPWTFGHGTKVEIK
notes: IgG; also called MIA11
B10: M3A04 (antibody, V domains shown)
VH: QVQLVESGGGVVQPGRSLRLSCAASGLTFSTYVMHWVRQAPGKGLEWVAVISYDGTNEHYADSVKGRFTISRDNSKNTLYLQMNSLRPEDTAVYYCARGTADYDVWSGSAWGGFDYWGQGTLVTVSS
VL: B9 VL with T31S, I48M, V50T, A51V, Q55P, G91S, S93N, W96Y, H100Q, V104L
notes: IgG
B11: M2E08 (antibody, V domains shown)
VH: EVQLVESGGDLVLPGGSLRLSCEASGFMFSSYAMNWVRQAPGKGLERVSGISGSGGNTYYADSVKGRFTISRDNSKNIVYLQMNSLRAEDTAVYYCAKDLGNDYFYYIDVWGKGTTVMVSS
VL: QSVLTQPPSVSGAPGQRVTISCTGTNFNIGAGYDVQWYQQLPGAAPKLLIHGNTYRPSGVPDRFSGSKSGTSASLAITGLQAEDEADYYCQSYDSSLSMVFGGGTKLTVL
notes: IgG
B12: M3A03 (antibody, V domains shown)
VH: QVQLVQSGAEVKKPGASVKVSCKASAYTFTSYGITWVRQAPGQGLEWMGWISAYRGNTKYAQKLQGRVTMTTDTSTSTASMELRSLRSDDTAVYYCARTSYYDSSYYPIDYWGQGTLVTVSS
VL: SYVLTQPPSVSVAPGQTARITCGGNNIGSKSVQWYQQKPGQAPVLVVYDDSDRPSGIPERFSGSNSGNTATLTISRVEAGDEADYYCQVWDSSGDRVVFGGGTKLTVL
notes: IgG
B13: M2E11L (antibody, V domains shown)
VH: QVQLVQSGAIMKKPGSSVKVSCKASGGTFTNFAFSWVRQAPGQGLEWMGGIIPFVGPANYAPQFQGRVTITADESTTTAYMELNSLRSEDTAVYYCARVRGFGETAYFYHYYMDVWGKGTTVTVSS
VL: QTVVTQEPSLSVSPGGTVTLTCGLSSGSVSTSHFPSWYQQIPGQPPRTLIYSTITRSSGVPDRFSGSILGNKATLTITGAQADDECDYYCVLYLGGGIPHWVFGGGTKLTVL
B14: M4F8 (antibody, V domains shown)
VH: QVQLVQSGPEVKKPGASVKISCKASEYTFTNHYLHWVRQAPGQGLEWLGIINPTGGSTYYAGDFQGRVTLTRDASTTTVYMELSSVKSEDTAIYYCARDRGMRYFDYWGQGTLVTVSS
VL: QSVLTQPPSVSGAPGQRVSISCTGISSNIGATYDVHWYQQLPGTAPKLLIYGNNNRPSGVPDRFSGSKSGTSASLAITGLQAEDEAVYYCQSYDSVLSGSVIFGGGTILTVL
notes: IgG
B15: M2E01 (antibody, V domains shown)
VH: QLQLQESGPGLVKPSETLSLTCTVSGGSISSSTYYWGWIRQPPGKGLEWIGTIYYSGSTDYNPSLKSRLTISVDTSKNQFSLRLRSVTAADTAVYYCARLVSPYDQFDYWGQGTLVTVSS
VL: DIQMTQSPSSLSASVGDRVTITCRASQTITTYLSWYLQKPGKAPKLLIYAASSWQSGVPSRFSGSGSGTDFTLTISSLQPEDFATYYCQQSYSTPYTFGQGTKLEIK
notes: IgG
B16: M2A03 (antibody, V domains shown)
VH: QLQLQESGPGLVKPSETLSLTCSVSGGSISSSSNSWTWIRQPPGKGLEWIATIFYFGSTYYNPSLRSRVAISVDTSENQFSLKLTSVTAADTAVYFCARHILSSSGVSGWLDPWGQGTLVTVSS
VL: SYELTQPPSVSVSPGQTASITCSGEKLGSKYAHWYQQKPGRSPVLVIYQDTKRPSGIPERFSGSNSGSTATLTISGTQAMDEADYYCQAWDSSSFVFGTGTTVTVL
notes: IgG

Substitutions are numbered along the chain they refer to.

For one assay, the target named is T1, Unprocessed hMPV PreF trimer (human metapneumovirus, strain B2).
T1 construct: also called Unprocessed hMPV WT PreF trimer; unprocessed hMPV PreF trimeric antigen
Put plainly: BLI, mAb on anti-human Fc sensor. (In general: Biolayer interferometry detects binding as a change in optical thickness at a sensor tip.)
As for B1, the Octet binding response amounted to 0.31 nm.
Same read-out and setting: the same measure for B2: 0.324 nm; for B3: 0.391 nm.
The same measure, in the same setting: as for B4, the figure is 0.426 nm; as for B5, 0.302 nm; as for B6, 0.242 nm.
The molecule B7 yielded an Octet binding response of 0.382 nm.
The molecule B8 gave an Octet binding response of 0.273 nm.
Same read-out and setting: the same measure for B9: 0.342 nm; for B10: 0.373 nm; for B11: 0.349 nm.
B12: the Octet binding response turned out to be 0.181 nm.
B13 gave an Octet binding response of 0.332 nm.
Still for that read-out and setting: as for B14, the figure is 0.271 nm.
Same read-out and setting: as for B15, the figure is 0.408 nm; as for B16, 0.369 nm.

The next assay deals with T2, hMPV PostF trimer (human metapneumovirus, strain B2).
T2 construct: also called MPV PostF (dPFv1)
Kind of assay: BLI, mAb on anti-human Fc sensor.
B1 came in with an Octet binding response of 0.0469 nm.
Regarding B2, the Octet binding response was -0.022 nm.
The molecule B3 gave an Octet binding response of 0.0702 nm.
Still for that read-out and setting: as for B4, the figure is 0.0401 nm; as for B5, -0.0435 nm; as for B6, -0.054 nm.
For the molecule B7, the Octet binding response is -0.0261 nm.
On the same count and under the same terms, as for B8, the figure is 0.426 nm; as for B9, 0.0143 nm; as for B10, -0.0261 nm.
Consider B11, for which the Octet binding response is -0.0233 nm.
On the same count and under the same terms, the same measure for B12: 0.568 nm.
The same measure, in the same setting: as for B13, the figure is 0.0538 nm.
The same measure, in the same setting: the same measure for B14: 0.0408 nm; for B15: -0.016 nm.
Consider B16, for which the Octet binding response amounted to 0.477 nm.

Another assay deals with T3, Processed stabilized hMPV PreF trimer (115BV) (human metapneumovirus, strain B2).
T3 construct: also called Processed hMPV PreF trimer; processed PreF
Put plainly: BLI, mAb on anti-human Fc sensor.
Take B1: the Octet binding response was found to be 0.0766 nm.
The same measure, in the same setting: as for B2, the figure is 0.0536 nm; as for B3, 0.199 nm; as for B4, 0.228 nm.
Turning to B5, the Octet binding response was determined as 0.0092 nm.
Take B6: the Octet binding response amounted to 0.0286 nm.
With B7, the Octet binding response is 0.0939 nm.
Still for that read-out and setting: as for B8, the figure is 0.0489 nm.
The same measure, in the same setting: as for B9, the figure is 0.0515 nm; as for B10, 0.0846 nm; as for B11, 0.0781 nm.
Take B12: the Octet binding response was 0.0409 nm.
Same read-out and setting: the same measure for B13: 0.162 nm; for B14: 0.0584 nm; for B15: 0.126 nm.
Still for that read-out and setting: the same measure for B16: 0.109 nm.

For another assay, the target named is T3, Processed stabilized hMPV PreF trimer …. Kind of assay: BLI, ratio to unprocessed PreF trimer.
Consider B1, for which the “processed/unprocessed PreF trimer binding ratio” value turned out to be 0.25.
B2: the “processed/unprocessed PreF trimer binding ratio” value was determined as 0.17.
On the same count and under the same terms, as for B3, the figure is 0.51; as for B4, 0.54.
The same measure, in the same setting: as for B5, the figure is 0.03; as for B6, 0.12; as for B7, 0.25.
Same read-out and setting: as for B8, the figure is 0.18.
For the molecule B9, the “processed/unprocessed PreF trimer binding ratio” value was determined as 0.15.
Still for that read-out and setting: the same measure for B10: 0.23; for B11: 0.22.
The same measure, in the same setting: the same measure for B12: 0.23; for B13: 0.49; for B14: 0.22.
Take B15: the “processed/unprocessed PreF trimer binding ratio” value was 0.31.
On the same count and under the same terms, as for B16, the figure is 0.29.

Source of the values: US20240327502A1 (Merck Sharp & Dohme, published 2024).
